Each substance was assayed against HLA-A*02:01 (Homo sapiens, UniProt P04439, D140Y/D185E/D98H/E176V/E277Q/G131W/G231S/I119V/I121R/I166T/I218V/L300P/L318F/N151K/N90K/P208A/P217A/Q86G/Q94H/R138H/R169H/T345S) (assay: MHC binding assay: UV-ligand exchange with β2m ELISA (peptide exchange yield)). Conditions: MHC class I binding score; binding to HLA-A*02:01 ranged by peptide exchange yield (UV-ligand exchange, β2m ELISA).
Method in brief: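 UV-exchange pMHC monomers, 100-fold diluted → streptavidin capture 1 h 37 °C → HRP anti-β2m 2 ug/ml 1 h 37 °C → TMB, A450. Yield from HLA-A*02:01/MLA-001 monomer standard curve, 15-500 ng/ml. Only stably bound peptides keep β2m-containing complexes intact.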
“71 (GLKHDIARV; listed as Homo sapiens) [compound 71]” was tested, and the “Peptide Exchange” value was “″+++″ (≥50 = +++)”. In the case of “359 (FMQDPMEVFV; listed as Homo sapiens) [compound 359]”, the “Peptide Exchange” value was “″+++″ (≥50 = +++)”. “68 (GLDQQFAGLDL; listed as Homo sapiens) [compound 68]” was tested, and the “Peptide Exchange” value was “″+″ (≥10% = +)”. With “324 (SLYSALQQA; listed as Homo sapiens) [compound 324]” the “Peptide Exchange” value was “″+++″ (≥50 = +++)”. “360 (HLIDTNKIQL; listed as Homo sapiens) [compound 360]” was tested, and the “Peptide Exchange” value was “″+++″ (≥50 = +++)”. For “4 (VIAELPPKVSV; listed as Homo sapiens) [compound 4]”, the “Peptide Exchange” value was “″+++″ (≥50 = +++)”. “286 (FLLEDLSQKL; listed as Homo sapiens) [compound 286]” was tested, and the “Peptide Exchange” value was “″+++″ (≥50 = +++)”. In the case of “79 (GLQAKIQEA; listed as Homo sapiens) [compound 79]”, the “Peptide Exchange” value was “″+++″ (≥50 = +++)”. With “10 (FVYGESVEL; listed as Homo sapiens) [compound 10]” the “Peptide Exchange” value was “″+++″ (≥50 = +++)”. For “256 (QLLPVSNVVSV; listed as Homo sapiens) [compound 256]”, the “Peptide Exchange” value was “″+++″ (≥50 = +++)”. With “184 (VLSHNLYTV; listed as Homo sapiens) [compound 184]” the “Peptide Exchange” value was “″+++″ (≥50 = +++)”. With “23 (ALYLTEVFL; listed as Homo sapiens) [compound 23]” the “Peptide Exchange” value was “″++++″ (≥75% = ++++)”. With “108 (VIYTLIHYI; listed as Homo sapiens) [compound 108]” the “Peptide Exchange” value was “″+++″ (≥50 = +++)”. For “122 (LLIPVVPGV; listed as Homo sapiens) [compound 122]”, the “Peptide Exchange” value was “″+++″ (≥50 = +++)”. For “27 (AVLGLVWLL; listed as Homo sapiens) [compound 27]”, the “Peptide Exchange” value was “″+++″ (≥50 = +++)”. For “199 (YLVELSSLL; listed as Homo sapiens) [compound 199]”, the “Peptide Exchange” value was “″++++″ (≥75% = ++++)”. “157 (SLNIRDFTM; listed as Homo sapiens) [compound 157]” was tested, and the “Peptide Exchange” value was “″+++″ (≥50 = +++)”. In the case of “216 (WLAGDVPAA; listed as Homo sapiens) [compound 216]”, the “Peptide Exchange” value was “″+++″ (≥50 = +++)”. For “211 (LIDVKPLGV; listed as Homo sapiens) [compound 211]”, the “Peptide Exchange” value was “″+++″ (≥50 = +++)”. “135 (MTAGFSTIAGSV; listed as Homo sapiens) [compound 135]” was tested, and the “Peptide Exchange” value was “″+″ (≥10% = +)”. In the case of “245 (KIMDYSLLLGV; listed as Homo sapiens) [compound 245]”, the “Peptide Exchange” value was “″++++″ (≥75% = ++++)”. With “208 (ILLKTEGINL; listed as Homo sapiens) [compound 208]” the “Peptide Exchange” value was “″+++″ (≥50 = +++)”. For “235 (GLDDLLLFL; listed as Homo sapiens) [compound 235]”, the “Peptide Exchange” value was “″+++″ (≥50 = +++)”. “204 (GLLQINDKIAL; listed as Homo sapiens) [compound 204]” was tested, and the “Peptide Exchange” value was “″+++″ (≥50 = +++)”. “298 (IILPVEVEV; listed as Homo sapiens) [compound 298]” was tested, and the “Peptide Exchange” value was “″+++″ (≥50 = +++)”. In the case of “326 (VLAFLVHEL; listed as Homo sapiens) [compound 326]”, the “Peptide Exchange” value was “″++++″ (≥75% = ++++)”. In the case of “15 (ALPEVSVEA; listed as Homo sapiens) [compound 15]”, the “Peptide Exchange” value was “″+++″ (≥50 = +++)”. With “93 (ILFNTQINI; listed as Homo sapiens) [compound 93]” the “Peptide Exchange” value was “″+++″ (≥50 = +++)”. “347 (YLGPVSPSL; listed as Homo sapiens) [compound 347]” was tested, and the “Peptide Exchange” value was “″+++″ (≥50 = +++)”. For “95 (ILGYMAHEHKV; listed as Homo sapiens) [compound 95]”, the “Peptide Exchange” value was “″++″ (≥20% = ++)”. “268 (TLLQVFHLL; listed as Homo sapiens) [compound 268]” was tested, and the “Peptide Exchange” value was “″+++″ (≥50 = +++)”. “248 (KTVEPPISQV; listed as Homo sapiens) [compound 248]” was tested, and the “Peptide Exchange” value was “″++″ (≥20% = ++)”. “58 (YIQQGIFSV; listed as Homo sapiens) [compound 58]” was tested, and the “Peptide Exchange” value was “″+++″ (≥50 = +++)”. For “169 (TLLLGLTEV; listed as Homo sapiens) [compound 169]”, the “Peptide Exchange” value was “″+++″ (≥50 = +++)”. With “143 (QLLDTYFTL; listed as Homo sapiens) [compound 143]” the “Peptide Exchange” value was “″+++″ (≥50 = +++)”. With “149 (SLDNGGYYI; listed as Homo sapiens) [compound 149]” the “Peptide Exchange” value was “″+++″ (≥50 = +++)”. “124 (LLLEETEKQAV; listed as Homo sapiens) [compound 124]” was tested, and the “Peptide Exchange” value was “″+++″ (≥50 = +++)”. With “179 (VLLGLEMTL; listed as Homo sapiens) [compound 179]” the “Peptide Exchange” value was “″+++″ (≥50 = +++)”. “262 (SLWNAGTSV; listed as Homo sapiens) [compound 262]” was tested, and the “Peptide Exchange” value was “″+++″ (≥50 = +++)”. With “276 (VLNDGAPNV; listed as Homo sapiens) [compound 276]” the “Peptide Exchange” value was “″+++″ (≥50 = +++)”. For “252 (NLLDPGSSYLL; listed as Homo sapiens) [compound 252]”, the “Peptide Exchange” value was “″+++″ (≥50 = +++)”. “244 (ILQALAVHL; listed as Homo sapiens) [compound 244]” was tested, and the “Peptide Exchange” value was “″+++″ (≥50 = +++)”. With “319 (QVIPQLQTV; listed as Homo sapiens) [compound 319]” the “Peptide Exchange” value was “″+++″ (≥50 = +++)”. In the case of “173 (TVIENIHTI; listed as Homo sapiens) [compound 173]”, the “Peptide Exchange” value was “″++″ (≥20% = ++)”. With “340 (KLLEEICNL; listed as Homo sapiens) [compound 340]” the “Peptide Exchange” value was “″++++″ (≥75% = ++++)”. For “289 (ILEEQPMDMLL; listed as Homo sapiens) [compound 289]”, the “Peptide Exchange” value was “″+++″ (≥50 = +++)”. In the case of “354 (FIMDDPAGNSYL; listed as Homo sapiens) [compound 354]”, the “Peptide Exchange” value was “″+++″ (≥50 = +++)”. For “48 (FLSPQQPPLL; listed as Homo sapiens) [compound 48]”, the “Peptide Exchange” value was “″+++″ (≥50 = +++)”. With “196 (YLLLQTYVL; listed as Homo sapiens) [compound 196]” the “Peptide Exchange” value was “″+″ (≥10% = +)”. With “218 (ALGEEWKGYVV; listed as Homo sapiens) [compound 218]” the “Peptide Exchange” value was “″++″ (≥20% = ++)”. In the case of “223 (ALWVSQPPEI; listed as Homo sapiens) [compound 223]”, the “Peptide Exchange” value was “″+++″ (≥50 = +++)”. “171 (TLVPPAALISI; listed as Homo sapiens) [compound 171]” was tested, and the “Peptide Exchange” value was “″+++″ (≥50 = +++)”. With “51 (FLVEAPHDWDL; listed as Homo sapiens) [compound 51]” the “Peptide Exchange” value was “″++++″ (≥75% = ++++)”. For “362 (ILTELGGFEV; listed as Homo sapiens) [compound 362]”, the “Peptide Exchange” value was “″+++″ (≥50 = +++)”. In the case of “349 (ALATHILSL; listed as Homo sapiens) [compound 349]”, the “Peptide Exchange” value was “″+++″ (≥50 = +++)”. In the case of “337 (YMYEKESEL; listed as Homo sapiens) [compound 337]”, the “Peptide Exchange” value was “″++″ (≥20% = ++)”. With “296 (FIAPTGHSL; listed as Homo sapiens) [compound 296]” the “Peptide Exchange” value was “″++″ (≥20% = ++)”. In the case of “140 (QIAELPATSV; listed as Homo sapiens) [compound 140]”, the “Peptide Exchange” value was “″+++″ (≥50 = +++)”. With “89 (ILDFGTFQL; listed as Homo sapiens) [compound 89]” the “Peptide Exchange” value was “″+++″ (≥50 = +++)”. For “205 (GLSQANFTL; listed as Homo sapiens) [compound 205]”, the “Peptide Exchange” value was “″+++″ (≥50 = +++)”. “47 (FLSDQPEPYL; listed as Homo sapiens) [compound 47]” was tested, and the “Peptide Exchange” value was “″++″ (≥20% = ++)”. For “260 (SLDDVEGMSV; listed as Homo sapiens) [compound 260]”, the “Peptide Exchange” value was “″+++″ (≥50 = +++)”. For “226 (AMNISVPQV; listed as Homo sapiens) [compound 226]”, the “Peptide Exchange” value was “″+++″ (≥50 = +++)”. For “175 (FTVPRVVAV; listed as Homo sapiens) [compound 175]”, the “Peptide Exchange” value was “″+++″ (≥50 = +++)”. For “181 (VLLSIPFVSV; listed as Homo sapiens) [compound 181]”, the “Peptide Exchange” value was “″+++″ (≥50 = +++)”. With “310 (LLSTLHLLV; listed as Homo sapiens) [compound 310]” the “Peptide Exchange” value was “″+++″ (≥50 = +++)”. For “94 (ILFPLRFTL; listed as Homo sapiens) [compound 94]”, the “Peptide Exchange” value was “″+++″ (≥50 = +++)”. “178 (VLFFNVQEV; listed as Homo sapiens) [compound 178]” was tested, and the “Peptide Exchange” value was “″+++″ (≥50 = +++)”. “342 (SLITPLQAV; listed as Homo sapiens) [compound 342]” was tested, and the “Peptide Exchange” value was “″+++″ (≥50 = +++)”. With “18 (LLGEFSIKM; listed as Homo sapiens) [compound 18]” the “Peptide Exchange” value was “″+++″ (≥50 = +++)”. In the case of “261 (SLVEAQGWLV; listed as Homo sapiens) [compound 261]”, the “Peptide Exchange” value was “″+++″ (≥50 = +++)”. For “345 (YLIEPDVELQRI; listed as Homo sapiens) [compound 345]”, the “Peptide Exchange” value was “″+++″ (≥50 = +++)”. In the case of “24 (AMAGDVVYA; listed as Homo sapiens) [compound 24]”, the “Peptide Exchange” value was “″+++″ (≥50 = +++)”. “83 (GQGEVLVYV; listed as Homo sapiens) [compound 83]” was tested, and the “Peptide Exchange” value was “″+++″ (≥50 = +++)”. For “299 (ILEENIPVL; listed as Homo sapiens) [compound 299]”, the “Peptide Exchange” value was “″+++″ (≥50 = +++)”. “321 (RLLEFELAQL; listed as Homo sapiens) [compound 321]” was tested, and the “Peptide Exchange” value was “″+++″ (≥50 = +++)”. For “250 (LLVQEPDGLMV; listed as Homo sapiens) [compound 250]”, the “Peptide Exchange” value was “″+++″ (≥50 = +++)”. In the case of “206 (HMQDVRVLL; listed as Homo sapiens) [compound 206]”, the “Peptide Exchange” value was “″+++″ (≥50 = +++)”.

Reference: patent US10117916B2, “Peptides and combination of peptides for use in immunotherapy against CLL and other cancers” (immatics biotechnologies GmbH, priority 2015, dated 2018)
